Test results taken from the nanobody polyreactivity screen of Harvey et al. (2022).

Assay: yeast display, Sf9 membrane polyspecificity reagent, FACS + sequencing; frameworks hold sequencing errors
Outline: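 A synthetic nanobody library was expressed on Saccharomyces cerevisiae BJ5465 by galactose induction for 36–48 hours. The library was stained for 1 hour at 4 °C with 10% biotinylated, detergent-solubilized Sf9 membrane reagent and enriched with streptavidin microbeads before FACS. Low and high (top ~1%) gates were set on anti-HA fluorescence for expression and streptavidin fluorescence for reagent binding, and each polyreactivity label reflects the gate of origin.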

QVKLVETGGGLVQAGGSLRLSCAASGSTFEHYAMGWYRQAPGKERELVAAISYTGGNTYYAYSVKGRFTISRDNAKNTVYLQMNSLKPEDTAVYYCAAAPLYYHRRGYYYWGQGTQVTVSS
polyreactivity (PSR sort gate): high polyreactivity

QVQLVESGGGLVQAGGSLRLSCAASGRTFRPYAMGWSRQAPGKERELVAAIDSSGTSTYYADSVKGRFTISRDNAKNTVYLQMNSLKPEDTAVYYCAKAWPDHWYSRYDYWGQGTQVTVSS
polyreactivity (PSR sort gate): low polyreactivity

QVQLVESGGGLVQAGGSLRLSCAASGFTFWFYAMGWYRQAPGKERELVAAISWDGSRTYYADSVKGRFTISRDHAKNTVYLQMNSLKPEDTAVYYCAAESEDSNYNYWGQGTQVTVSS
polyreactivity (PSR sort gate): high polyreactivity

QVQLVESGGGLVQAGGSLRLSCAASGITFFFNAMGWYRQAPGKERELVAAITSGGGSTYYADSVKGRFTISRDNAKNTVYLQMNSLKPEDTAVYYCNADFSKSYDYWGQGTQVTVSS
polyreactivity (PSR sort gate): low polyreactivity

QVQLVESGGGLVHAGGCLRLSCAASGRNFYYYTMGWSRQEPGKERELVASISRSGDRTYYADSVKGRFTISRDYAKNTVYLQMNSLKPEDTAVYYCNAQKYPRYSRTSGRNYFFWGQGTQVTVSS
polyreactivity (PSR sort gate): high polyreactivity

QVQLVESGGGLVQAGGSLRLSCAACGFTFLRYVMGWYRQAPGKERELVAAISYSGGRTYYADSVKGRFTISRDNAKNTVYLQMNSLKPEDTAVYYCAAARPVGYPPVLKYAYWGQGTQVTVSS
polyreactivity (PSR sort gate): high polyreactivity

QVQLVESGGGLVQAGGSLRLSCAASGSTFAYYAMGWYRQAPGKERELVASISWRGGSTYYADSVKGRFTNSRDNAKNTVYLQMNSLKPEDTAVYYCAAGRFYIWSRSQEYDYWGQGTQVTVSS
polyreactivity (PSR sort gate): low polyreactivity

QVQLVESGGGLVQAGGSLRLSCAASGFIFRQYAMGWYRQAPGKEMELVAAISSSGGRTYYADSVKGRFTISRDNAKNTVYLQMNSLKPEDTAVSYCNARAWLRVEYGEGYWGQGTQVTVSS
polyreactivity (PSR sort gate): high polyreactivity

QVQLVESGGCLVQAGGSLRLSCAASGSTFYDYDMGWYRQAPGKERELVAAISSSVSTYYADSVKGRFTISRDNAKNTVYFQMNSLKPEDTAVYYCAADYTGVWRYDYWGQGTQVTVSS
polyreactivity (PSR sort gate): low polyreactivity

QVQLVESGGGLVQAGGSLRLSCAASGSTFSSNAMGWYRKAPGKERELVAAISVNGGSTNYADSVKGRFTISRDNAKNTVYLQMNSLKPEDTAVYYCAAEPAKVAFYRGDYWGQGTQVTVSS
polyreactivity (PSR sort gate): low polyreactivity

QVKLVESGGGLVQAGGSLRLSCADSGLIFYKYAMGWYRKAPGKERELVAAITSGGSTNYADSVKGRFTISRDNAKNTVYLQMNSLKPEDTAVYYCNADYNHYLVVRWWYPPVDYWGQGTQVTVSS
polyreactivity (PSR sort gate): low polyreactivity

QDQLVDSGGGLVQAGGSLRLSCAASGSIFTPNAMGWYRQAPGKERELVAAISWSGGGTYYADSVKGRFTISRDNAKNTVYLQMNSLKPEDTAVYYCNAEYTKTGALVIPYTYYYAEDYWGQGTQVTVSS
polyreactivity (PSR sort gate): low polyreactivity

QVQLVESGGGLVQAGGRLRLSCAATGSIFRGYAMGWYRQAPGKERELVAAISYRGGSTYYADSVKGRFTISRDNAKNTVYLQMNSLKPEDTAVDYWAAVYSHYWWFDYWGQGTQVTVSS
polyreactivity (PSR sort gate): high polyreactivity

QVQLVESGGGLVQAGGSLRLSCAPSGSTFYYYAMGWYRQAPGKERELVAAITWSGGSTRYADSVKGRFTISRDNAKNTVYLQMKSLKPEDTAVYYCAAYYRKTGFEYWGQGSQVTVSS
polyreactivity (PSR sort gate): high polyreactivity

QVQLVESVGGLVQAGGSLRLSCAASGSTFRPYAMGWSRQAPGKERELVAAITGSGGSTYYADSVKGRFTISRDNAKNTVYLQMNSLKPEDTAVYYCNAVSTWRYYYWGQGTQVTVSS
polyreactivity (PSR sort gate): high polyreactivity

HFQLVESGGRLVQAGGSIRLSCAASGRIFRPNAMGWYRQAPRKERQLVAAISYSGATTYYADSVKGRFTISRDNEKNTVYLQMNSLKPEDTAVYYCAACGTSAKEFGYWGQGTQVTVSS
polyreactivity (PSR sort gate): low polyreactivity

QVQLVESGGGLVQAGGSLRLSCAASGSIFHYNAMGWYRQAPGKERELVARISVNGGRTYYADSVKGRFTISRDNAKNTVYLQMNSLKPEDTEVYYCAVEGVWRSFFYGYDSWGQGTQVTVSS
polyreactivity (PSR sort gate): low polyreactivity

QVHLVESGGGLVQAGVSLRLSCAASGSTFRRNAMGWYRQEPGKERELVAAISTSGGTTYYADSVKGRFTISRDNAKNTVYLEMNSLKPEDTAVYYCNADVYVWNYKYYSSGQGTQVTVSS
polyreactivity (PSR sort gate): high polyreactivity

QVKLVESGGGLVQAGGSLSLSFAYSGITFYGNAMGWYRQAAGTERELVAAITGGGGTNYADSLKGRFTISRDNEKNTVYLQMNSLKPEDTAVYYCNRDYFVWFQRGQYKRGSSWYDYWGQGTQVTVSS
polyreactivity (PSR sort gate): low polyreactivity

QVQLVESGGGLVQAGGSLRLSCAASGFIFAIYAMGWYRQAPGKERELVAAISSSGGSTYYADSVKGRFTISRDNAKNTVYLQMNSLKPEDTAVYYCNADWSLYWLDYWGQGTQVTVSS
polyreactivity (PSR sort gate): high polyreactivity

QVQLVESGGGLVQAGGSLRLSCAASGRTFLPNAMGWYRQAPGKERELVAAINWRGASTYYADSVKGRFTISRDNAKNTVYLQMNSLKPEDTAVYYCAVDSHYQSYYYRRYDYWGQGTQVTVSS
polyreactivity (PSR sort gate): low polyreactivity

QVQLVESGGGLVQAGGSLRLSCAASGFIFATYTMGWYRQAPGKERKLVAAITWRGGSTYYADSVKGRFTISRDNAKNSVYLQMNSLKPEDTAVYYCAAQDVYSYRYVEDDYWGQGTQVTVSS
polyreactivity (PSR sort gate): low polyreactivity

QVQNVESGGGLVQARGSLRLSCAASGRTFTESDMGRYRQAPGKERELVAAITSVGSTYYADSVKGRFTISRYNAKNTVYLQMNSLKPEDTAVYYCAAEWQNTNMDYWGQGTQVTVSS
polyreactivity (PSR sort gate): low polyreactivity

QVQLVESGGGLVQAGGSLRLSCAASGLTFEWYTMGWYRQAHGKEREMVAVITVSGSSTYYADSVKGRFTISRDNAKNTVYLQMNSLKPEDTAVYYCNADWSFYSYTLYDYWGQGSQVTVSS
polyreactivity (PSR sort gate): low polyreactivity

QGQLEESGGGLVQAGGSLRLSCAASGRTFAFYTMGWYRQAPGKERELVAAITRGGSTYYADSVKGRFTISRDNAKNTVYVQMNSLKPEDTAVYYCAASTRYYSQQFDYWGQGTQVTVSS
polyreactivity (PSR sort gate): high polyreactivity

QVQLVESGGGLVQAGGSLRLSCAASGRIFKRNTMGWYRQAPGKEWELVAAITRSGGSTHYADSVKGRFTFSRDNAKNTVYLHMNSLKPEDTAVYYCAVRAAAIDRLAQFDYWGQGSQVTVSS
polyreactivity (PSR sort gate): low polyreactivity

QVQLVESGGGLVQAGGSLRLSCAASGITFRYYAMGWYRQAPGKERELVAAITRGGRTNYADSVKGRFTISRDNAKNTVYLQMNSLKPEDAAVYYCATGRDSNFGNSYYYWGQGTQVTVSS
polyreactivity (PSR sort gate): high polyreactivity

QVQLVESGGGLVQAGGSLRLSCAASGRPFPGNAMGWYRPAPGKERELVAAISSSGGSTHYADSGKGRFTISRDTAKNTVYLQMNSLKPEDTAVYYCNARSIGYSYRYYDWGQGTQVTVSS
polyreactivity (PSR sort gate): high polyreactivity

QVQLVESGGGLVQAGGSLRLSCAASVSTFTFNDMGWSRQAPGKERELVAAITSGGSTTYADSVKGRFTISRDNAKNTVYLQMNSLKPEDTAVYYCAADYVYFYFYGYASWGQGTQVTVSS
polyreactivity (PSR sort gate): low polyreactivity

QVQLVESGGGLVQAGGSLRLSCDASGSTSYLYAMGCYRQAPGKARELVAAIPWRSVRTSYADSVKGRFTFSRDNAKNTVYLQMNSLKPEDTAVYYCNAVGYTRGRSTYDYWGQGTQVTVSS
polyreactivity (PSR sort gate): high polyreactivity

QVQLVESGGGLVQAGGSLRLSCPASGRTFQVYAMGWYRQAPGKERELVAGITRAGSTYYADSVKGRFTISRDNAKNTVYLQMISLKPEDTAVYYCAAGWKSSYYIWRYGSWGQGTQVTVSS
polyreactivity (PSR sort gate): high polyreactivity

QVQLVESGGGLVQAGGSLRLSCAASGRTFFWYAMGWYRQAPGKERELVAAITYRGGGTYYADSVKGRFTISRDNAKNTVYLQMNSLKPEDTAVYYCAAEYWVGVYLYDYWGQGTQVTVSS
polyreactivity (PSR sort gate): high polyreactivity

QVQLVESGGGLVQAGGSLRLSCAASGSISKINAMGWYRQAPGKERELVAAINTGDSTYYADSVKGRFTISRDNAKNTVYLQMNSLKPEDTAVYYCAAEGSPTGYDYWGQGTQVTVSS
polyreactivity (PSR sort gate): low polyreactivity

QVQLVESGGGLVQAGGSLRLSCAASGRIFNRNAMGWYRQAPGKERELVATISFNDGSTYYADSVKGRFRISRDIAKNTVYLQMNSLKPEDTAVYYCAKEGYVFEYDYWGKGTQVTVSS
polyreactivity (PSR sort gate): low polyreactivity

QVQLVESGGGLVQAGGSLRLSCAASGFTFGSYAKGWYRQAPGKERELVAAIRASGGRTYYADSVKGRFTISRDNAKNTVFLQMNSLKPEDTAVYYCAADTGGNPKYDYWGQGTQVTVSS
polyreactivity (PSR sort gate): high polyreactivity

QVQHVESGGGLVQAGGSLRLSCAASGRIFAVNTMGWYRPAPVKERELVAAITSTGRTYYADSVKGRFTISRDNAKNTVYLQMNSLKPEDSAVYYCAADFRYPYAHLPYGYWGQGTQVTVSS
polyreactivity (PSR sort gate): high polyreactivity

QVQLVESGGGLFQAGGSLRLSCAASGRTFYSNDMGWYRQAPGNERELVAAISWRSGSTHYADSVKGRFTISRDNAKNTVYFQMNSLKPEDTAVFYCAARRRDLVPHYYWGQGTQVTVSS
polyreactivity (PSR sort gate): high polyreactivity

QVQLVESGGGLVQAGGSLRLSCAASGSTFSTNVMGWYRQAPGKERELVAAISTIGGSTYADSVKGRFTISRDNAKNTVYLQMNSQKPEDTAVYYCAKRSRYPYYPYGYWGQGTQVTVSS
polyreactivity (PSR sort gate): high polyreactivity

QVQLVESRGGLVQAGGSLRLSSAASAFIFGSNAMGWYRQAPGKERELVAAISRSGGSTYYADSVKGRFTISRDNAKKTVYLQMNSLKPEDTAVYYCNVDLWPFVYSWWSYDYWGPGTQVTVSS
polyreactivity (PSR sort gate): high polyreactivity

QVQLVESGGGLVQAGGSLRLSCAASGSTFWNYAMGWYRQAPGKERELVASIDSSDGRTYYADSVKGRYTISRDNAKTTVYVQMNSLKPEDTAAYYCAKDAYAVELRPYSKLSSRAVGYWGQGTQVTVSS
polyreactivity (PSR sort gate): low polyreactivity

QVQLVESGGGLVQAGGSLRLSCAASGIIFNYYTMGWYRQAPGKERELVAVISWRGGSTFYADSVKGRFTISRDNAKNTVYLQMNSLKPEDTAVYYCAAVLFGDYPPVYYPTEYDYWGQGTQVTVSS
polyreactivity (PSR sort gate): low polyreactivity

QVQLVESGGGLVQAGGSLRLSCAASGRILSPYAMGWYRPAPGKERELVAAISRSGGSTYYADSVKGRFTISRDNAKNTVYLQMNSLKPEDTAVYYCNAVIAWYRSDEYDYWGQGTQVTVSS
polyreactivity (PSR sort gate): high polyreactivity

QVQLVESGGGLVQAGGSLRLSCAASGRIFVYYAMGWYRQAPGKEMELVASISYSGASTYYADSVKGRFTISRDNAKNTVYLQMNSLKPEDTAVYYCNTDGDDFFHVIYDYWGQGTQVTVSS
polyreactivity (PSR sort gate): low polyreactivity
